According to patent publication US20260327301 (published 2026):
Where a chain is given by its changes, count along the chain named.

T1: canine IL-31 (dog)
T1 chain: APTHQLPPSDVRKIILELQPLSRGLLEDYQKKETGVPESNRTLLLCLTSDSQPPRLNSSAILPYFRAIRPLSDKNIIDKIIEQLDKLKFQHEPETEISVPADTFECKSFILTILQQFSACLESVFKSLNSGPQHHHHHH

B1: 30G5-1 rabbit-derived (antibody, V domains shown)
VH: QSLEESGGRLVTPGGSLTLTCTVSGFSLSSYAMIWVRQAPGEGLEWIGTIDPSDNTDYASWAKGRFTISKTSSTTVDLKLTSLTTEDTATYFCASHSYDDYGRDVWNLWGQGTLVTVSS
VL: IVMTQTPSSKSVPVGDTVTINCQASQSVDNNNDLSWYQQKPGQPPKLLIYYTSSLPSGVPSRFKGSGSGTQFTLTISDLECDDAATYYCVGYKSSTTDATAFGGGTEVMVK
B2: 30A11-1 rabbit-derived (antibody, V domains shown)
VH: QEQLKESGGGLVTPGGTLTLTCTASGFTISGYYMNWVRQAPGKGLEWIGFIYSPSTTYYANWAKGRFTISKTSTTVDLKITSPTTEDTATYFCARGHTTEIRLDLWGQGTLVTVSS
VL: AVLTQTPSPVSAAVGGTVSISCQSSESVYKNNRLSWFQQKPGQPPKLLIFDASTLASGVSSRFKGSGSGTQFTLTISGVQCDDAATYYCLGEFRDSSDNSFGGGTEVVVK
B3: 38E2-1 rabbit-derived (antibody, V domains shown)
VH: QSLEESGGRLVTPGTPLTLTCTASAFSLSGYYMGWVRQAPGKGLEYIGIIGGSSNTFYASWAKGRFTISKTPTTVDLKITSPTTEDTATYFCARHGDTDYISGTYFDLWGQGTLVTVSS
VL: AYHMTQTPASVEVPVGGTVTIKCQASQSISIYLAWYQQKPGQPPKLLIYRASTLASGVPSRFIGSGSGTEFSLTISDLECADAATYYCQQGYEDSNVESLFGGGTEVVVK
B4: 18E8-1 rabbit-derived (antibody, V domains shown)
VH: B3 VH
VL: B3 VL with R50K
B5: 47C1-1 rabbit-derived (antibody, V domains shown)
VH: QSVEESGGRLVTPGTPLTLTCTVSGFSLSTYAMNWVRQAPGKGLEWIGIIYSNGDGYYASWAKGRYTISKTSSTTVDLKVTSPTTEDTATYFCARGIYSQTTGYFNLWGQGTLVTVSS
VL: DIVMTQTPASVEAAVGGIVIIKCQASESIGNTLAWYQQKPGQPPKLLIYGASTLASGVSSRFKGSGSGTEVTLTISDLECADAATYYCQSYWSSTTTFRDTFGGGTEVVVK
B6: 19C7-1 rabbit-derived (antibody, V domains shown)
VH: QSVEESGGRLVTPGTPLTLTCTVSGFSLNSYAMGWVRQAPGKGLEYIGIINSSGSTWYATWVKGRFTISKTSTTVDLKMTSVTTEDTATYFCARNRDPFYITDMDLWGQGTLVTVSS
VL: QVLTQTPSSVSAAVGGTVTINCQASQNIYSYLSWYQQKPGQPPKLLIYRASTLASGVPSRFKGSGSGTEFTLTISGVECADAATYYCQQGDSYSDVDNIFGGGTEVVVK
B7: 35C9-1 rabbit-derived (antibody, V domains shown)
VH: QSLEESGGRLVTPGTPLTLTCTASGFSLSSYWMSWVRQAPGKGLEWIGDIYATGSTYYANWATGRFTGSKTSTTVDLTITSPTIEDTATYFCARHSSRSGIDFDLWGQGTLVTVSS
VL: AYDMTQTPASVEAAVGGTVTIKCQASQSIGNYLAWYQQKPGQPPKQLIYRASTLASGVPSRFKGSGSGTEFTLTISDLECADGATYYCQQGYDSNNVDNFFGGGTEVVVR
B8: 19D1-1 rabbit-derived (antibody, V domains shown)
VH: B7 VH with T53S, T56E, N60S, A62V, T63N, T78K
VL: B7 VL with G30S, I75M, G83A, F100L, R110K
B9: 5H4-2 rabbit-derived (antibody, V domains shown)
VH: QSLEESGGDLVKPGASLTLTCTASGFTLSSDYYMCWVRQAPGKGLELIACITTSTVGTWYASWAKGRFTISKTSSTTVTLQMTSLTAADTATYFCGREDGTYADYFNLWGPGTLVTVSS
VL: AYDMTQTPASVEVAVGGTVTIKCQASQSISSWLAWYQQKPGQRPKLLIYRASTLASGVSSRFKGSGSGTQFTLTISGVECADAATYYCQQGYRSSNLDNAFGGGTEVVVK
B10: 44B4-1 rabbit-derived (antibody, V domains shown)
VH: QSLEESGGRLVTPGTPLTLTCTASGFSLSNSYMGWVRQAPGKGLEYIGFIDTGGTTYYASWAKGRFTISRTSTTVDLKMTSPTTEDTATYFCAKGPDDYFFNLWGQGTLVTVSS
VL: DIVMTQTPASVEAAVGGTITINCQASESISSWLAWYQQKPGQPPKLLIYKASTLESGVPSRFKGSGSGTEFTLTISGVQCADAATYYCQVYYFSYNSYNFFGGGTEVVVK
B11: Caninized 47C1-1-H3L3 (antibody, V domains shown)
VH: EVQLVESGGDLVKPGGSLRLSCVASGFSLSTYAMNWVRQAPGKGLEWISIIYSNGDGYYASWAKGRFTISRDNSKNTLYLQMNSLRAEDTAVYYCARGIYSQTTGYFNLWGQGTLVTVSS
VL: MDTRAPTQLLGLLLLWLPGARCEIVMTQTPASLSLSQEGKVTITCQASESIGNTLAWYQQKPGQPPKLLIYGASTLASGVPSRFSGSGSGTDFTFTINSLQPEDVATYYCQSYWSSTTTFRDTFGQGTKVEIKR
B12: Caninized 47C1-1-H2L2 (antibody, V domains shown)
VH: B11 VH with S74A
VL: B11 VL
B13: Chimeric Antibody 38E2-1 (antibody, V domains shown)
VH: B3 VH
VL: AYHMTQTPASVEVPVGGTVTIKCQASQSISIYLAWYQQKPGQPPKLLIYRASTLASGVPSRFIGSGSGTEFSLTISDLECADAATYYCQQGYEDSNVESLFGGGTEVVVKR
B14: Caninized 35C9-1-H1L2 (antibody, V domains shown)
VH: EVQLVESGGDLVKPGGSLRLSCVASGFTFSSYWMSWVRQAPGKGLQWLSDIYATGSTYYANWATGRFTGSRDNAKNTLYLQMNSLTIEDTATYFCARHSSRSGIDFDLWGQGTLVTVSS
VL: EIVMTQSPASLSLSQEEKVTITCQASQSIGNYLAWYQQKPGQAPKQLIYRASTLASGVPSRFSGSGSGTDFTLTISDLECADVAVYYCQQGYDSNNVDNFFGQGTKVEIKR
B15: Caninized 35C9-1-H1L1 (antibody, V domains shown)
VH: B14 VH
VL: B14 VL with S63K, D70E
B16: Chimeric Antibody 47C1-1 (antibody, V domains shown)
VH: B5 VH
VL: DIVMTQTPASVEAAVGGIVIIKCQASESIGNTLAWYQQKPGQPPKLLIYGASTLASGVSSRFKGSGSGTEVTLTISDLECADAATYYCQSYWSSTTTFRDTFGGGTEVVVKR
B17: Caninized 38E2-1-H3L3 (antibody, V domains shown)
VH: EVQLVESGGDLVKPGGSLRLSCVASAFSLSGYYMGWVRQAPGKGLEWISIIGGSSNTFYASWAKGRFTISKDNSKNTLYLQMNSLRAEDTAVYFCARHGDTDYISGTYFDLWGQGTLVTVSS
VL: EIVMTQSPASLSLSQGEKVTITCQASQSISIYLAWYQQKPGQPPKLLIYRASTLASGVPSRFSGSGSGTDFSFTITSLQPEDVATYYCQQGYEDSNVESLFGQGTKVEIKR
B18: Caninized 38E2-1-H3L2 (antibody, V domains shown)
VH: B17 VH
VL: B17 VL with T76S
B19: Chimeric Antibody 35C9-1 (antibody, V domains shown)
VH: B7 VH
VL: AYDMTQTPASVEAAVGGTVTIKCQASQSIGNYLAWYQQKPGQPPKQLIYRASTLASGVPSRFKGSGSGTEFTLTISDLECADGATYYCQQGYDSNNVDNFFGGGTEVVVRR

Target: T1, canine IL-31
Experiment: ELISA

| EC50 [µg/mL] | Binder |
| --- | --- |
| 0.00208 | B1 |
| 0.00282 | B2 |
| 0.000915 | B3 |
| 0.00195 | B4 |
| 0.00179 | B5 |
| 0.00321 | B6 |
| 0.0023 | B7 |
| 0.000196 | B8 |
| 0.000841 | B9 |
| 0.000232 | B10 |

Target: T1, canine IL-31
Experiment: BLI

| Kd [nM] | Binder |
| --- | --- |
| 2.55 | B3 |
| 3.75 | B5 |
| 12.7 | B7 |
| 43.3 | B8 |
| 113 | B9 |

Target: T1, canine IL-31
Experiment: ELISA
Remark: another data set of the same source

| EC50 [µg/mL] | Binder |
| --- | --- |
| 0.105 | B11 |
| 0.113 | B12 |
| 0.0928 | B13 |
| 0.158 | B14 |
| 0.19 | B15 |
| 0.102 | B16 |
| 0.0934 | B17 |
| 0.0978 | B18 |
| 0.103 | B19 |

Target: T1, canine IL-31
Experiment: BLI
Remark: another data set of the same source

| Kd [nM] | Binder |
| --- | --- |
| 0.815 | B3 |
| 2.49 | B13 |
| 8.32 | B16 |
| 3.75 | B5 |
| 11.9 | B19 |
| 12.7 | B7 |

Target: T1, canine IL-31
Experiment: ELISA
Remark: another data set of the same source

| EC50 [µg/mL] | Binder |
| --- | --- |
| 0.094 | B13 |
| 0.0985 | B16 |
| 0.105 | B19 |

Target: T1, canine IL-31
Experiment: BLI
Remark: another data set of the same source

| Kd [nM] | Binder |
| --- | --- |
| 15.5 | B11 |
| 15.1 | B12 |
| 0.815 | B3 |
| 2.49 | B13 |
| 389 | B14 |
| 495 | B15 |
| 8.32 | B16 |
| 3.75 | B5 |
| 5.35 | B17 |
| 8.04 | B18 |
| 11.9 | B19 |
| 12.7 | B7 |
